According to PMC11879086, “Identification and characterization of a human MORC2 DNA binding region that is required for gene silencing” (Nucleic Acids Research, 2024):

Target: T1, MORC2 dephosphorylated (wild-type) (Homo sapiens, UniProt Q9Y6X9 1-1032)
T1 sequence: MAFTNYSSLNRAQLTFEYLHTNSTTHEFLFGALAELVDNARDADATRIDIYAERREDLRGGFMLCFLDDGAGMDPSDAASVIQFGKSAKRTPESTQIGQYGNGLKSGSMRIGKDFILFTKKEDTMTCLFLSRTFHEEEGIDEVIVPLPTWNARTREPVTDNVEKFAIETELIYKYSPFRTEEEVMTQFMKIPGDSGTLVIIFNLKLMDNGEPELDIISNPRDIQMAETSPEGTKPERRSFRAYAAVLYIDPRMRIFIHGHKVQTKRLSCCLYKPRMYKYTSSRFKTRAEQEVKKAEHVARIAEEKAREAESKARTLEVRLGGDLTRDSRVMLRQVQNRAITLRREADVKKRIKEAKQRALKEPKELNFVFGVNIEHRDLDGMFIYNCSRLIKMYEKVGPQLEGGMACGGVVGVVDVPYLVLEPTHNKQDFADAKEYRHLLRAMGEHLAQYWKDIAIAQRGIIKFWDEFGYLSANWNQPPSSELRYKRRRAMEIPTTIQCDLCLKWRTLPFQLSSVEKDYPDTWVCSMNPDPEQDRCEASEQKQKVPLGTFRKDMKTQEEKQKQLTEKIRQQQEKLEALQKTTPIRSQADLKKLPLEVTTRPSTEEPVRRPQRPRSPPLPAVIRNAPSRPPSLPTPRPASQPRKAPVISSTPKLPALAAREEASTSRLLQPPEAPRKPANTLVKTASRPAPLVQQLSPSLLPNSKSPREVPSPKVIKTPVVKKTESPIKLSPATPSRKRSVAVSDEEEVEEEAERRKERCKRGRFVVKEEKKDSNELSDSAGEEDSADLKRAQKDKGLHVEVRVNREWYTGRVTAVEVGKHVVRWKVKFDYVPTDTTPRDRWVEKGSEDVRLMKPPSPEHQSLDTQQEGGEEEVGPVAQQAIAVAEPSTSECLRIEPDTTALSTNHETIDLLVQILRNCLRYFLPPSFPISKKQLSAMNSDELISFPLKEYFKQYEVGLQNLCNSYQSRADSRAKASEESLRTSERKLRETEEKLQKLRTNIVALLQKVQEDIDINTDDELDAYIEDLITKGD
Assay: fluorescence anisotropy; apo; second listing ('5 or less'); FA/EMSA: 50 mM NaCl, 3 mM MgCl2, 20 mM Na-HEPES pH 7.4, 1 mM TCEP, 10% glycerol, 0.025 mM ZnCl2, 50 ug/ml BSA, room temperature; 1 nM nucleic acid (FA) or 20 nM DNA (EMSA)
Details: protein: recombinant; tags: tag removed by TEV; chain copies: 2; label: 5'-6-FAM; blunt

B1: Random 35mer dsDNA (dsDNA)
DNA 1: ATAGGGTCCATCAGAATTCGGATGAACTCGGTGTG
DNA 2: CACACCGAGTTCATCCGAATTCTGATGGACCCTAT
- Kd: < 5 nM
